{
  "source": "paper PMC2810249",
  "assay_in_all_cases": "NMR titration",
  "key": {"[1]": {"biological_target": "Itk SH3 domain (wild type)"}, "Itk SH3(E189Q) domain": {"biological_target": "Itk SH3(E189Q) domain"}, "Itk SH3(E189K) domain": {"biological_target": "Itk SH3(E189K) domain"}, "Itk SH3(Y180E) domain": {"biological_target": "Itk SH3(Y180E) domain"}, "Itk SH2(I282A) domain": {"biological_target": "Itk SH2(I282A) domain"}},
  "note": "Square brackets hold non-standard residues; d marks the D form. pY = N[C@@H](Cc1ccc(OP(=O)(O)O)cc1)C(=O)O",
  "data": [
    {"molecule": "Itk SH2 domain (wild type) (domain or fragment)", "values": [
      {"measurement": "Kd", "setting": "[1]", "value": 670, "unit": "µM"},
      {"measurement": "Kd", "setting": "Itk SH3(E189Q) domain", "value": 2050, "unit": "µM"}
    ]},
    {"molecule": "Itk SH2(K309E) domain (domain or fragment)", "values": [
      {"measurement": "Kd", "setting": "[1]", "value": 1850, "unit": "µM"},
      {"measurement": "Kd", "setting": "Itk SH3(E189K) domain", "value": 1080, "unit": "µM"}
    ]},
    {"molecule": "Itk SH2(K280A) domain (domain or fragment)", "values": [
      {"measurement": "fold drop in affinity against SH3(Y180E)/wild type SH2", "setting": "Itk SH3(Y180E) domain", "value": 10, "unit": "fold"}
    ]},
    {"molecule": "Itk SH2(R332A) domain (domain or fragment)", "values": [
      {"measurement": "Kd", "setting": "[1]", "value": 1800, "unit": "µM"}
    ]},
    {"molecule": "Ac-AD[pY]EPP-NH2 (SMILES CC(=O)N[C@@H](C)C(=O)N[C@@H](CC(=O)O)C(=O)N[C@@H](Cc1ccc(OP(=O)(O)O)cc1)C(=O)N[C@@H](CCC(=O)O)C(=O)N1CCC[C@H]1C(=O)N1CCC[C@H]1C(N)=O)", "note": "[phosphopeptide derived from Slp76 (Ac-ADpYEPP-NH2)]", "values": [
      {"measurement": "Kd", "setting": "Itk SH2(I282A) domain", "value": 1000, "unit": "µM"}
    ]}
  ]
}
